# Measured values from publication PMC13254535, “The RecBCD complex interacts directly with the DNA sliding clamp in Escherichia coli” (Nucleic Acids Research, 2026).
# Like-named read-outs stand apart in the source and are kept apart here.
# B1: RecB: wild type RecB subunit of the E. coli RecBCD complex (T18 fusion, his-tagged or HaloTag according to test) (protein)
# chain: MSDVAETLDPLRLPLQGERLIEASAGTGKTFTIAALYLRLLLGLGGSAAFPRPLTVEELLVVTFTEAATAELRGRIRSNIHELRIACLRETTDNPLYERLLEEIDDKAQAAQWLLLAERQMDEAAVFTIHGFCQRMLNLNAFESGMLFEQQLIEDESLLRYQACADFWRRHCYPLPREIAQVVFETWKGPQALLRDINRYLQGEAPVIKAPPPDDETLASRHAQIVARIDTVKQQWRDAVGELDALIESSGIDRRKFNRSNQAKWIDKISAWAEEETNSYQLPESLEKFSQRFLEDRTKAGGETPRHPLFEAIDQLLAEPLSIRDLVITRALAEIRETVAREKRRRGELGFDDMLSRLDSALRSESGEVLAAAIRTRFPVAMIDEFQDTDPQQYRIFRRIWHHQPETALLLIGDPKQAIYAFRGADIFTYMKARSEVHAHYTLDTNWRSAPGMVNSVNKLFSQTDDAFMFREIPFIPVKSAGKNQALRFVFKGETQPAMKMWLMEGESCGVGDYQSTMAQVCAAQIRDWLQAGQRGEALLMNGDDARPVRASDISVLVRSRQEAAQVRDALTLLEIPSVYLSNRDSVFETLEAQEMLWLLQAVMTPERENTLRSALATSMMGLNALDIETLNNDEHAWDVVVEEFDGYRQIWRKRGVMPMLRALMSARNIAENLLATAGGERRLTDILHISELLQEAGTQLESEHALVRWLSQHILEPDSNASSQQMRLESDKHLVQIVTIHKSKGLEYPLVWLPFITNFRVQEQAFYHDRHSFEAVLDLNAAPESVDLAEAERLAEDLRLLYVALTRSVWHCSLGVAPLVRRRGDKKGDTDVHQSALGRLLQKGEPQDAAGLRTCIEALCDDDIAWQTAQTGDNQPWQVNDVSTAELNAKTLQRLPGDNWRVTSYSGLQQRGHGIAQDLMPRLDVDAAGVASVVEEPTLTPHQFPRGASPGTFLHSLFEDLDFTQPVDPNWVREKLELGGFESQWEPVLTEWITAVLQAPLNETGVSLSQLSARNKQVEMEFYLPISEPLIASQLDTLIRQFDPLSAGCPPLEFMQVRGMLKGFIDLVFRHEGRYYLLDYKSNWLGEDSSAYTQQAMAAAMQAHRYDLQYQLYTLALHRYLRHRIADYDYEHHFGGVIYLFLRGVDKEHPQQGIYTTRPNAGLIALMDEMFAGMTLEEA
# modifications: left off: T18 (Bordetella pertussis CyaA fragment), N-terminal, kept
# Key:
# β-clamp = β-clamp (Escherichia coli, UniProt P0A988)
# β-clamp, sequence (P0A988 whole entry, the tested form may be a part): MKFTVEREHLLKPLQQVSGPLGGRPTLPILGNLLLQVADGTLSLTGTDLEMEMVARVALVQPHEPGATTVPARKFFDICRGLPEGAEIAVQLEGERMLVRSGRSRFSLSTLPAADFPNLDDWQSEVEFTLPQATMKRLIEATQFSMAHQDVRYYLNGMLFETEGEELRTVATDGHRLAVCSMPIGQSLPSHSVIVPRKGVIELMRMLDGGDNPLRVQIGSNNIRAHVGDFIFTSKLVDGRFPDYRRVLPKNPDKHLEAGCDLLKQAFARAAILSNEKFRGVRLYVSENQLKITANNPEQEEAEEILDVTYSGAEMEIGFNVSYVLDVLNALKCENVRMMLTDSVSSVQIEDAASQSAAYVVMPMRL
# Description: Protein–protein interactions between RecB and β-clamp, as well as between RecB and RecA, were examined using the bacterial adenylate cyclase-based two-hybrid (BACTH) system (Euromedex), as previously described, with optimizations noted below. This system relies on the functional reconstitution of Bordetella pertussis adenylate cyclase (CyaA) fragments T25 and T18, which are genetically fused to the proteins of interest. Upon interaction of the fusion partners, cAMP production is restored in the cyaA-deficient E. coli BTH101 strain, activating downstream reporters such as lacZ and mal operons. Co-transformants were tested using one or several of the following readouts: (i) qualitative X-gal spot assay, (ii) quantitative β-galactosidase assay, and (iii) semi-quantitative growth in M63 minimal medium with maltose.
# Recipient strains (BTH101 or derivatives) were streaked from glycerol stock onto LB agar plates containing streptomycin (100 µg/ml), isopropyl β-D-1-thiogalactopyranoside (IPTG) (0.5 mM), and 5-bromo-4-chloro-3-indolyl β-D-galactopyranoside (X-gal) (40 µg/ml) and incubated at 37°C until cya⁺ (blue) revertants became visible among the cya⁻ (white) colonies. Multiple white colonies were picked and cultured overnight in LB with streptomycin (100 µg/ml) at 37°C. These cultures were diluted 1:50 and expanded before electroporation.
# Transformed cells were immediately recovered in 1 ml SOC at 37°C for 1.5 h with shaking and plated on LB agar supplemented with appropriate antibiotics (Table 4). Plates were incubated at 30°C for up to 3 days.
# Following selection, 3–5 colonies from each transformation plate were pooled to inoculate 1 ml LB containing IPTG (0.5 mM) and the appropriate antibiotics. Cultures were incubated overnight at 30°C with shaking. The same overnight culture was used to seed all subsequent assays. The following day, cultures were diluted 1:100 into fresh LB (containing IPTG and antibiotics) and grown at 30°C to mid-exponential phase (OD600 around 0.5–0.6, measured by Nanodrop One, Thermo Fisher Scientific Inc.) before use in assays.
# The X-gal spot assay was used to visualize protein−protein interactions via blue/white colorimetric readout. Mid-log cultures were serially diluted (10-fold series), and 5 µl of each dilution (including undiluted) was spotted onto LB agar containing IPTG (0.5 mM), X-gal (40 µg/ml), and selective antibiotics. To assess interaction stability under genotoxic stress, an identical plate was exposed to UV light (15 J/m^2). Plates were incubated at 30°C for 2–3 days, and images were captured with a smartphone camera.
# β-galactosidase activity was quantified using a modified Miller assay adapted for 96-well format. Cultures at OD600 around 0.5–0.6 were measured again in a plate reader (Victor Nivo, PerkinElmer, Waltham, MA, USA) to account for instrument variability. Cells were pelleted, resuspended in PM2 buffer (70 mM Na2HPO4, 30 mM NaH2PO4, 1 mM MgSO4, 0.2 mM MnSO4, and 100 mM β-mercaptoethanol), and permeabilized with 0.01% (w/v) sodium dodecyl sulfate (SDS) and 10% (v/v) toluene for 45 min at 37°C. […] Absorbance at 405 nm was recorded, and β-galactosidase activity calculated in Miller Units using the following equation: […]
# This assay exploits the cAMP dependence of the mal regulon, allowing only cya^+ cells with interacting fusion proteins to grow on maltose as sole carbon source. […] Cultures were incubated in triplicate at 30°C with shaking, and OD600 was measured at 24, 48, and 72 h using a plate reader. […]
# ΔrecA ΔrecB cells = assay: Basal DNA content without UV; format: cell-based, Escherichia coli; settings: expressed from pUT18C in ΔrecA ΔrecB; unchallenged; relative to ΔrecA ΔrecB cells
# Procedure: IMR13 (ΔrecA) served as a positive control for RecB-mediated DNA degradation, while IMR19 (ΔrecA ΔrecB) was used as a negative control.
# Overnight cultures were diluted to an OD600 of 0.01 into LB medium supplemented with appropriate antibiotics and incubated with shaking at 37°C until they reached an OD600 of 0.2. Each culture was split into two 1 ml aliquots. One aliquot was fixed immediately in ethanol (50% final concentration) to assess DNA content prior to UV exposure. The second aliquot was pelleted, resuspended in 1× PBS, and exposed to UV light at a dose of 50 J/m^2 (CL-1000 Ultraviolet crosslinker, UVP). […]
# Imaging was performed on a Leica DM6000 B fluorescence microscope equipped with a 100× oil immersion objective (Leica HCX Plan Apochromat 100×, 1.40 NA, PH3 CS), a Leica EL6000 metal-halide illumination system, and a Hamamatsu C9100-14 EM-CCD camera. For each sample, six fields of view were acquired, each including both phase-contrast and fluorescence channels. Fluorescence imaging was conducted using a narrow band-pass filter set optimized for CFP (Excitation: 426–446 nm; Emission: 460–500 nm; exposure time: 30 ms). All imaging parameters—including exposure time, illumination intensity, and gain—were kept constant across all strains, treatments, and replicates to ensure quantitative comparability and minimize experimental bias. […]
molecule,measurement,setting,value
B1,interaction strength relative to RecB–RecC positive control,β-clamp,comparable to the RecB–RecC positive control interaction
same,"interaction with β-clamp, β-galactosidase activity",β-clamp,abolished
same,"interaction with β-clamp, β-galactosidase activity","β-clamp; BTH101 wild-type and ΔrecB backgrounds, 24 h, relative to empty vector negative control",distinct interaction
same,"interaction with β-clamp, β-galactosidase activity",β-clamp; BTH101 ΔrecA,initially appeared absent
same,"interaction with β-clamp, M63/maltose growth","β-clamp; BTH101 ΔrecA, M63/maltose variant, longer incubation",the interaction was apparent also in the ΔrecA strain
same,basal degradation,ΔrecA ΔrecB cells,~50%
